Measurements as given in paper doi:10.1101/2025.06.05.658000 (2025).
Like-named read-outs stand apart in the source and are kept apart here. No end group written: not given here. *: point of attachment. Biotin = O=C1N[C@H]2[C@H](CS[C@H]2CCCCC(=O)*)N1; Ahx = NCCCCCC(=O)O

Tests used:
Experiment in all cases: ELISA
[1] = target: T1, HLA-DR (DRA1*01:01 / DRB1*07:01), soluble knob-into-hole Fc heterodimer (human)
[2] = target: T2, HLA-DR (DRA1*01:01 / DRB1*12:01), soluble knob-into-hole Fc heterodimer (human)
[3] = target: HLA-DR (DRA1*01:01 / DRB1*01:01), soluble knob-into-hole Fc heterodimer (human)
[4] = target: T1, HLA-DR (DRA1*01:01 / DRB1*07:01), …; remark: listed apart in the source
[5] = target: HLA-DR (DRA1*01:01 / DRB1*04:05), soluble knob-into-hole Fc heterodimer (human)
[6] = target: HLA-DR (DRA1*01:01 / DRB1*15:01), soluble knob-into-hole Fc heterodimer (human)
[7] = target: HLA-DR (DRA1*01:01 / DRB1*04:01), soluble knob-into-hole Fc heterodimer (human)
[8] = target: HLA-DR (DRA1*01:01 / DRB1*10:01), soluble knob-into-hole Fc heterodimer (human)
[9] = target: HLA-DR (DRA1*01:01 / DRB1*15:02), soluble knob-into-hole Fc heterodimer (human)
[10] = target: HLA-DR (DRA1*01:01 / DRB1*03:01), soluble knob-into-hole Fc heterodimer (human)
[11] = target: HLA-DR (DRA1*01:01 / DRB1*01:02), soluble knob-into-hole Fc heterodimer (human)
[12] = target: HLA-DR (DRA1*01:01 / DRB1*11:01), soluble knob-into-hole Fc heterodimer (human)
[13] = target: HLA-DR (DRA1*01:01 / DRB1*16:02), soluble knob-into-hole Fc heterodimer (human)
[14] = target: HLA-DR (DRA1*01:01 / DRB1*04:06), soluble knob-into-hole Fc heterodimer (human)
[15] = target: HLA-DR (DRA1*01:01 / DRB1*13:02), soluble knob-into-hole Fc heterodimer (human)
[16] = target: HLA-DR (DRA1*01:01 / DRB1*11:04), soluble knob-into-hole Fc heterodimer (human)
[17] = target: HLA-DR (DRA1*01:01 / DRB1*12:02), soluble knob-into-hole Fc heterodimer (human)
[18] = target: HLA-DR (DRA1*01:01 / DRB1*04:07), soluble knob-into-hole Fc heterodimer (human)
[19] = target: HLA-DR (DRA1*01:01 / DRB1*13:01), soluble knob-into-hole Fc heterodimer (human)
[20] = target: HLA-DR (DRA1*01:01 / DRB1*09:01), soluble knob-into-hole Fc heterodimer (human)
[21] = target: HLA-DR (DRA1*01:01 / DRB1*04:03), soluble knob-into-hole Fc heterodimer (human)
[22] = target: T2, HLA-DR (DRA1*01:01 / DRB1*12:01), …; remark: listed apart in the source
[23] = target: HLA-DR (DRA1*01:01 / DRB1*04:04), soluble knob-into-hole Fc heterodimer (human)
[24] = target: HLA-DR (DRA1*01:01 / DRB1*15:03), soluble knob-into-hole Fc heterodimer (human)
[25] = target: HLA-DR (DRA1*01:01 / DRB1*14:54), soluble knob-into-hole Fc heterodimer (human)
[26] = target: HLA-DR (DRA1*01:01 / DRB1*14:01), soluble knob-into-hole Fc heterodimer (human)

Binder: VVLSFELLHAPATVC [SARS-CoV-2 RBD peptide RBD511-525]
- Kd [1]: 263 nM
- Kd [2]: 631 nM

Binder: {Biotin-Ahx}-KPVSKMRMATPLLMQALPM
- Kd [3]: 1.83 nM
- Kd [4]: 4.09 nM
- Kd [5]: 14.9 nM
- Kd [6]: 2.13 nM
- Kd [7]: 2.35 nM
- Kd [8]: 1.27 nM
- Kd [9]: 8.75 nM

Binder: KPVSKMRMATPLLMQALPM (also: biotin-labeled)
- Kd [10]: 15.1 nM
- Kd [11]: 1.78 nM
- Kd [12]: 12 nM
- Kd [13]: 8.67 nM
- Kd [14]: 2.63 nM
- Kd [15]: 4.13 µM
- Kd [16]: 4.54 nM
- Kd [17]: 1.27 nM
- Kd [18]: 2.76 nM
- Kd [19]: 315 nM
- Kd [20]: 0.576 nM
- Kd [21]: 2.32 nM
- Kd [22]: 22.9 nM
- Kd [23]: 2.7 nM
- Kd [24]: 5.31 nM
- Kd [25]: 3.35 nM
- Kd [26]: 9.17 nM

Binder: TESIVRFPNITNLCP [SARS-CoV-2 RBD peptide RBD323-337]
- Kd [1]: 435 nM
- Kd [2]: 4930 nM

Binder: GNYNYLYRLFRKSNL [SARS-CoV-2 RBD peptide RBD447-461, wildtype strain]
- Kd [1]: 163 nM
- Kd [2]: 229 nM

Binder: VEGFNCYFPLQSYGF [SARS-CoV-2 RBD peptide RBD483-497]
- Kd [1]: 173 nM
- Kd [2]: 439 nM

Binder: ADYNYKLPDDFTGCV [SARS-CoV-2 RBD peptide RBD419-433]
- Kd [1]: > 10000 nM
- Kd [2]: > 10000 nM
